From US20200332015A1 (NAMAB THERAPEUTICS, published 2020)

T1: mouse Fc-tagged mouse CD137 (R&D Systems, cat. 937-4B-050) (mouse, UniProt P20334 24-187)
T1 construct: also called mouse CD137-Fc chimeric protein
T1 sequence (looked up): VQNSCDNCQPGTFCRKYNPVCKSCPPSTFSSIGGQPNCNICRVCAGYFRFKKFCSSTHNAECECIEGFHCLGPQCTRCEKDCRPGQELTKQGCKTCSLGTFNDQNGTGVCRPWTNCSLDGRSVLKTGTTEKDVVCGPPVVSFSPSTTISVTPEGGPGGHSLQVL


Key:
[1] = biological target: human PDL1-Fc chimeric protein (human, UniProt Q9NZQ7 19-238, limits assumed); experiment: SPR T200, antigen-Fc captured, molecule as analyte
Protocol: (§1) Affinity to PDL1 of the different species was determined by SPR measurements using a Biacore T200 device (GE Healthcare). An antibody specific for the Fc region of human IgGs was immobilized on a sensor chip (CM5 sensor chip, GE Healthcare) by amine-coupling. For all formats, with the exception of the Fc containing Morrison formats, PDL1-Fc chimeric protein from different species were captured by the immobilized antibody. Three-fold serial dilutions of the molecules specific for PDL1 (0.12-90 nM) were injected into the flow cells for three minutes and dissociation was monitored for 10 minutes. After each injection cycle, surfaces were regenerated with one injection of a 3 M MgCl₂ solution. The apparent dissociation (kd) and association (kₐ) rate constants and the apparent dissociation equilibrium constant (KD) were calculated using one-to-one Langmuir binding model. Affinity to CD137 of the different species was determined using the identical setup as for PDL1 with the exception that CD137-Fc chimeric proteins from different species were captured by the immobilized antibody.

[2] = biological target: T2, Fc tagged human CD137 (R&D Systems, cat. 838-4B-100) (human, UniProt Q07011 24-186); experiment: SPR T200, antigen-Fc captured, molecule as analyte
T2 construct: also called CD137 Fc chimera; human CD137-Fc chimeric protein
Protocol: as §1

[3] = biological target: T3, human CD137 expressed on Jurkat cells (human, UniProt Q07011 24-255); experiment: cell-based or functional assay
[4] = biological target: T3, human CD137 expressed on Jurkat cells; experiment: cell-based or functional assay; remark: listed apart in the source
[5] = biological target: T3, human CD137 expressed on Jurkat cells; experiment: cell-based or functional assay; remark: listed apart in the source
[6] = biological target: T4, human PDL1 extracellular domain (human, UniProt Q9NZQ7 19-238); experiment: SPR T200, Morrison format captured, ECD analyte
T4 construct: extracellular domain; Analyte for the Fc containing Morrison formats
Protocol: as §1
The Fc containing formats were directly captured by the antibody specific for the Fc region of human IgGs. Two-fold serial dilutions of PDL1 extracellular domain or CD137 extracellular domain ranging from 90 to 0.35 nM were tested for binding to the IgG captured on the biosensor chip. After each injection cycle, surfaces were regenerated with one injection of a 3 M MgCl2 solution.

[7] = biological target: T1, mouse Fc-tagged mouse CD137 (R&D …); experiment: SPR T200, antigen-Fc captured, molecule as analyte
Protocol: as §1

| Binder | Kd [1] [nM] | koff [1] [s⁻¹] | kon [1] [M⁻¹ s⁻¹] | Kd [2] [nM] | koff [2] [s⁻¹] | kon [2] [M⁻¹ s⁻¹] | EC50 NFkB-luciferase, CHO-PDL1 cells, 6 h, + HSA [3] [µg/mL] | Top of curve fit, NFkB-luciferase, CHO-PDL1 cells, 6 h, + HSA [3] | EC50 NFkB-luciferase, CHO-PDL1 cells, 24 h, + HBA (so in the source) [4] [µg/mL] | Top of curve fit, NFkB-luciferase, CHO-PDL1 cells, 24 h, + HBA (so in the source) [4] | max. activation, NF-kB reporter gene, CHO-PD-L1, 24h [5] [%] | rel. IC50 (urelumab/test), NF-kB reporter gene, CHO-PD-L1, 24h [5] [ratio] | Kd [6] [nM] | koff [6] [s⁻¹] | kon [6] [M⁻¹ s⁻¹] | Kd [7] [nM] | koff [7] [s⁻¹] | kon [7] [M⁻¹ s⁻¹] |
| --- | --- | --- | --- | --- | --- | --- | --- | --- | --- | --- | --- | --- | --- | --- | --- | --- | --- | --- |
| PRO966 (= PRO1052) (38_27_C05 sc01 scDb-i/33-03-G02 sc01 scDb-o/19-01-H04-sc03 scFv) (other, Trispecific scDb-scFv) DIQMTQSPSSLSASVGDRVTITCQASQSINDYLAWYQQKPGKAPKLLIYKASTLASGVPSRFSGSGSGTDFTLTISSLQPEDFATYYCQQGYIITDIDNVFGTGTKVTVLGGGGGSQVQLQESGPGLVKPSETLSLTCKVSGFSFNNDYDMCWIRQPPGKGLEWIGCIDTGDGSTYYASWAKGRVTISVDSSKNQFSLKLSSVTAADTAVYYCAREAASSSGYGMGYFDLWGQGTLVTVSSGGGGSGGGGSGGGGSGGGGSIQMTQSPSSLSASVGDRVTITCQSSQSVYDNNWLAWYQQKPGKAPKLLIYRASNLASGVPSRFSGSGSGTDFTLTISSLQPEDFATYYCQGTYLSSNWYWAFGTGTKVTVLGGGGGSQVQLQESGPGLVKPSETLSLTCKVSGFSFSSGYDMCWIRQPPGKGLEWIGCVVAGSVDITYYASWAKGRVTISVDSSKNQFSLKLSSVTAADTAVYYCARKDAYSDAFNLWGQGTLVTVSSGGGGSGGGGSIQMTQSPSSLSASVGDRVTITCQSSESVYSNNQLSWYQQKPGQPPKLLIYDASDLASGVPSRFSGSGSGTDFTLTISSLQPEDFATYYCAGGFSSSSDTAFGGGTKLTVLGGGGGSGGGGSGGGGSGGGGSEVQLVESGGGLVQPGGSLRLSCAASGFSLSSNAMGWVRQAPGKGLEYIGIISVGGFTYYASWAKGRFTISRDNSKNTVYLQMNSLRAEDTATYFCARDRHGGDSSGAFYLWGQGTLVTVSS | 0.083 | 0.00014 | 1.6e+06 | 2.2 | 0.0022 | 1e+06 | – | – | – | – | – | – | – | – | – | – | – | – |
| PRO1058 (38_27_C05 scDb-i/33-03-G02 sc01 scDb-o/mxr HSA (23-13-A01-sc03, sk17sh4)) (other, Trispecific scDb-scFv; also called PR01058) DIQMTQSPSSLSASVGDRVTITCQASQSINDYLAWYQQKPGKAPKLLIYKASTLASGVPSRFSGSGSGTDFTLTISSLQPEDFATYYCQQGYIITDIDNVFGTGTKVTVLGGGGGSQVQLQESGPGLVKPSETLSLTCKVSGFSFNNDYDMCWIRQPPGKGLEWIGCIDTGDGSTYYASWAKGRVTISVDSSKNQFSLKLSSVTAADTAVYYCAREAASSSGYGMGYFDLWGQGTLVTVSSGGGGSGGGGSGGGGSGGGGSIQMTQSPSSLSASVGDRVTITCQSSQSVYDNNWLAWYQQKPGKAPKLLIYRASNLASGVPSRFSGSGSGTDFTLTISSLQPEDFATYYCQGTYLSSNWYWAFGTGTKVTVLGGGGGSQVQLQESGPGLVKPSETLSLTCKVSGFSFSSGYDMCWIRQPPGKGLEWIGCVVAGSVDITYYASWAKGRVTISVDSSKNQFSLKLSSVTAADTAVYYCARKDAYSDAFNLWGQGTLVTVSSGGGGSGGGGSVVMTQSPSSLSASVGDRVTITCQASQIISSRSAWYQQKPGQPPKLLIYQASKLASGVPSRFSGSGSGTDFTLTISSLQPEDFATYYCQCTYIDSNFGAFGGGTKLTVLGGGGGSGGGGSGGGGSGGGGSEVQLVESGGGLVQPGGSLRLSCAASGFSFSSSYWICWVRQAPGKGLEWVGCVFTGDGTTYYASWAKGRFTISRDNSKNTVYLQMNSLRAEDTATYFCARPVSVYYYGMDLWGQGTLVTVSS | 0.16 | 0.00019 | 1.2e+06 | 1.2 | 0.0021 | 1.7e+06 | 0.0709 | 40.1 | 0.121 | 20.5 | 36.2 | 0.64 | – | – | – | – | – | – |

Continued, values first:

| Kd [1] [nM] | koff [1] [s⁻¹] | kon [1] [M⁻¹ s⁻¹] | Kd [2] [nM] | koff [2] [s⁻¹] | kon [2] [M⁻¹ s⁻¹] | EC50 NFkB-luciferase, CHO-PDL1 cells, 6 h, + HSA [3] [µg/mL] | Top of curve fit, NFkB-luciferase, CHO-PDL1 cells, 6 h, + HSA [3] | EC50 NFkB-luciferase, CHO-PDL1 cells, 24 h, + HBA (so in the source) [4] [µg/mL] | Top of curve fit, NFkB-luciferase, CHO-PDL1 cells, 24 h, + HBA (so in the source) [4] | max. activation, NF-kB reporter gene, CHO-PD-L1, 24h [5] [%] | rel. IC50 (urelumab/test), NF-kB reporter gene, CHO-PD-L1, 24h [5] [ratio] | Kd [6] [nM] | koff [6] [s⁻¹] | kon [6] [M⁻¹ s⁻¹] | Kd [7] [nM] | koff [7] [s⁻¹] | kon [7] [M⁻¹ s⁻¹] | Binder |
| --- | --- | --- | --- | --- | --- | --- | --- | --- | --- | --- | --- | --- | --- | --- | --- | --- | --- | --- |
| – | – | – | – | – | – | – | – | – | – | – | – | 0.038 | 5e-05 | 1.3e+06 | – | – | – | PRO1062 (33-03-G02 sc01 IgG1 HC with 38_27_C05 sc01 scFv, PDL1/CD137(scFv) silent Morrison) (bispecific antibody, also called PR01062; Morrison-H) light: DIQMTQSPSSLSASVGDRVTITCQASQSINDYLAWYQQKPGKAPKLLIYKASTLASGVPSRFSGSGSGTDFTLTISSLQPEDFATYYCQQGYIITDIDNVFGTGTKVTVLGTVAAPSVFIFPPSDEQLKSGTASVVCLLNNFYPREAKVQWKVDNALQSGNSQESVTEQDSKDSTYSLSSTLTLSKADYEKHKVYACEVTHQGLSSPVTKSFNRGEC heavy: QVQLQESGPGLVKPSETLSLTCKVSGFSFSSGYDMCWIRQPPGKGLEWIGCVVAGSVDITYYASWAKGRVTISVDSSKNQFSLKLSSVTAADTAVYYCARKDAYSDAFNLWGQGTLVTVSSASTKGPSVFPLAPSSKSTSGGTAALGCLVKDYFPEPVTVSWNSGALTSGVHTFPAVLQSSGLYSLSSVVTVPSSSLGTQTYICNVNHKPSNTKVDKRVEPKSCDKTHTCPPCPAPEAAGGPSVFLFPPKPKDTLMISRTPEVTCVVVDVSHEDPEVKFNWYVDGVEVHNAKTKPREEQYNSTYRVVSVLTVLHQDWLNGKEYKCKVSNKALGAPIEKTISKAKGQPREPQVYTLPPSREEMTKNQVSLTCLVKGFYPSDIAVEWESNGQPENNYKTTPPVLDSDGSFFLYSKLTVDKSRWQQGNVFSCSVMHEALHNHYTQKSLSLSPGKGGGGSGGGGSIQMTQSPSSLSASVGDRVTITCQASQSINNVLAWYQQKPGKAPKLLIYRASTLASGVPSRFSGSGSGTDFTLTISSLQPEDFATYYCQSSYGNYGDFGTGTKVTVLGGGGGSGGGGSGGGGSGGGGSQVQLQESGPGLVKPSETLSLTCKVSGFSFSNSYWICWIRQPPGKGLEWIGCTFVGSSDSTYYANWAKGRVTISVDSSKNQFSLKLSSVTAADTAVYYCARHPSDAVYGYANNLWGQGTLVTVSS |
| 0.067 | 0.00011 | 1.7e+06 | 3.7 | 0.00075 | 200000 | – | – | – | – | – | – | – | – | – | 510 | 0.27 | 540000 | PRO1125 (38-02-A04 scDb-i/33_03_G02 sc02 IF scDb-o) (bispecific antibody, scDb) DIQMTQSPSSLSASVGDRVTITCQASQSINDYLAWYQQKPGKSPKLLIYKASTLASGVPSRFSGSGSGTDFTLTISSLQPEDFATYYCQQGYIITDIDNVFGTGTKVTVLGGGGGSQVQLQESGPGLVKPSETLSLTCKVSGFSFSNSYWICWIRQPPGKGLEWIGCTFVGSSDSTYYANWAKGRVTISVDSSKNQFSLKLSSVTAADTAVYYCARHPSDAVYGYANNLWGQGTLVTVSSGGGGSGGGGSGGGGSGGGGSIQMTQSPSSLSASVGDRVTITCQASQSINNVLAWYQQKPGKAPKLLIYRASTLASGVPSRFSGSGSGTDFTLTISSLQPEDFATYYCQSSYGNYGDFGTGTKVTVLGGGGGSQVQLQESGPGLVKPSETLSLTCKVSGFSFSSGYDMCWVRQPPGKGLEWIACVVAGSVDITYYASWAKGRVTISVDSSKNQFSLKLSSVTAADTAVYFCARKDAYSDAFNLWGQGTLVTVSS |
| 0.028 | 7.6e-05 | 2.8e+06 | 3.4 | 0.00084 | 250000 | – | – | – | – | – | – | – | – | – | 420 | 0.19 | 450000 | PRO1134 (38-02-A04 sc01 scDb-i/33_03_G02 sc07 GL VH3 scDb-o) (bispecific antibody, scDb) DIQMTQSPSSLSASVGDAVTITCQASQSINDYLAWYQQKPGKSPKLLIYKASTLASGVPSRFSGSGSGTDFTLTISSLQPEDFATYYCQQGYIITDIDNVFGTGTKVTVLGGGGGSQVQLQESGPGLVKPSETLSLTCKVSGFSFSNSYWICWIRQPPGKGLEWIGCTFVGSSDSTYYANWAKGRVTISVDSSKNQFSLKLSSVTAADTAVYYCARHPSDAVYGYANNLWGQGTLVTVSSGGGGSGGGGSGGGGSGGGGSIQMTQSPSSLSASVGDRVTITCQASQSINNVLAWYQQKPGKAPKLLIYRASTLASGVPSRFSGSGSGTDFTLTISSLQPEDFATYYCQSSYGNYGDFGTGTKVTVLGGGGGSEVQLVESGGGLVQPGGSLRLSCAASGFSFSSGYDMCWVRQAPGKGLEWVGCVVAGSVDITYYASWAKGRFTISRDNSKNTVYLQMNSLRAEDTATYYCARKDAYSDAFNLWGPGTLVTVSS |
